Test: yeast display, Sf9 membrane polyspecificity reagent, FACS + sequencing; frameworks hold sequencing errors
How it was run: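 A nanobody's polyreactivity label depends on the gate it was sorted from. Yeast display cells were stained with 10% biotinylated, detergent-solubilized Sf9 membrane reagent for 1 hour at 4 °C, enriched on streptavidin microbeads and sorted by FACS. The low and high (top ~1%) gates were set on anti-HA fluorescence for expression and streptavidin fluorescence for reagent binding.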

Sequence | polyreactivity (PSR sort gate)
QVQLVESGGGLDQAGGSLRLSCAASGITFKPYGMGWYRQAPGKERELVADITSGGITYYADSVKGRFTISRDNAKNTVYLQMNSLKPEDTAVYYCATGDLFVFYWGYVVRLYDYWGQGTQVTVSS | low polyreactivity
QVQLVESGGGLVQAGGSLRLSCAASGLIFPPNVMGWYRQAPGKDRELVAAITSSGSTNYADSVTGRFTISRDNAKNTVYLQMNSLKPEDTAVYYCARDQTWSYQPWYYLSYTQYEYWGQGNQVTVSS | low polyreactivity
QVQLVESGGGLDQARGSLRLSCAASGLTFASNAMGWYRQAPGKERELVAAISWSDGSTYYADSVKGRFTISRDNAKNTVYLQMNSLKPEDTAVYYCAAEPPGFRTSRVGYWGQGTQVTVSS | low polyreactivity
QVQLQESVGGQVQAGVSLRLICAASCTISQEDWMGWYRQAPAKEREFVAAIGLGSNTNYADSLKGRFTISRDNAKNTVDLQMNSLKPEDTAVYYCAVSVWQYSDHVYRGQGTQVTVSS | low polyreactivity
QVQLVESGGGLVQAGGSLRLSCAASGSIFHGYAMGWYRRAPGKERELVAAITYSGGRTYYADSVKGRFTISRDNAKNTVYLQMNSLKPEDTAVYYCAALTRRVKKYDYWGQGTQVTVSS | high polyreactivity
QVQLVESGGGLVQAGGSLRLSCAASGRIFYPNAMGWYRQAPGKERELVAAITSGGRTYYADSVKGRFTISRDNAKNTVYLQMNSLKPEDTAVYYCNARYSFWRSGPGYQGVDYWGQGTQVTVSS | high polyreactivity
QVQLVESGGGLVQAGGSLRLSCAASGSTLSQNAMGWYRQAPGKEREFVADISGAGDSTYYADSVKGRFTISRDNAKNTVYLQMISLKPDDTAVYYCATPSPHVGLKWEYDYWGQGTQVTVSS | low polyreactivity
QVQLVDSGGGLVQAGVSLRLSCPASGSIFRPNAMGWYRQAPGKERELVAAINTSDDSTYYADSVKGRFTISRDNAKNTVYLQMNSLIREDTAVYYCAAEYYAYAYGDDYDYWGQGTQVTVSS | low polyreactivity
QVQLVESGGGLVQAGGSLRLSCAASGSTFKYYPMGWYRQAPGKERELVAAITSTGSTNYADSVKGRFTISRDNAKNTVYLQMNSRKPEDTAVYYCAKKYFYSTYYSWGHGTQVTVSS | low polyreactivity
QVQLVESGGGLVQAGGSLRLSCAASGRTFYDYAMGWYRQAPGKEREFVARITYSGGGTYYADSVKGRFTISRDNAKHTVYLQMNSLKPEDTAVYYCARPFNRYLGLTRNGYTSDYWGQGTQVTVSS | high polyreactivity
QVQRVESGGGLVQAGGSLRLSSAASGSIFFDYAMRGYRQAPGNERELVAAISGSGGSRYYADSVKGRFTISRDNAKNTVYLQMNSLIPEDTAVYYCAAGYKYFRIRYDYWGQGTQVTVSS | high polyreactivity
QVQLVESGGGLVQAGGSLRLSCAASGSIFDRYVMGWYRQAPGKERELVAAITTSGDGTYYADSVKGRFTISRDNAKNTVYLQMNSLKPEDTAVYYCAAVRRSWKYSTSDYWGQGTQVTVSS | low polyreactivity
QVQLVESGGGLVQAGGSLRLSCAASGSTIRLYAMGWYRQAPGKESELVAAISVSGGSTHYADSVKGRFTISRDNAKNTVYLQMNSLKPEYTAVYYFNAAGNPVSRYHYDYWGQGTQVTVSS | high polyreactivity
QVQLVESGAGLVQAGGSLRLSCADSGSTFQPYAMGWYRQAPGKEREFVATISGSAGSKYYADSVKGRFKISRDNAKNTVYLQKNSLKPEDTAVYYCNADSGWFGYDYWGQGTQVTVSS | low polyreactivity
QVQLVESVGGLVQAGGRLRLSCAASGLTFTHYTMGWYIQAPGKERELVAAISQTGGSTYYADSVKGRFTISRDNEKNTVYLQMNSQKPEDTADYYCSRVFPRPRPGYYNWGQGTQVTVSS | high polyreactivity
QVLLVESGGGLVQAGGSLRLSCAASGRTFGTNGMGWYRQAPGKERELVAVITWTGGSTYYADSVKGRFTITRDNEKNTVYLQMNSLKPEDTAVYYCAAKYSHLGYNYWGQGTQVTVSS | high polyreactivity
QVQLVESGGGLVQAGGSLRLICAASGFIFLVNAMGWYRQAPGKERELVAAISLSTTSTYYADSVKGRFTISRDNAKNTVYLQMNSLKPEDTAVYYCAADHWGVGAPTYGQYTTHDYWGQGTQVTVSS | low polyreactivity
QVQLVESGGGLLQAGGSLRLSCAASGFTIYGYGMGWYRQAPGKERELVAGITARGSSTYYADSVKGRFTISRDNAKNTVYLQMNSLKPEDTAVYYCNSVGARVASATGMEYWGQGTQVTVSS | high polyreactivity
QVQLQESGGGLVQAGGSLRLSCAASGTISYAPHMGWYRQAPGKERELVAGITIVGTTYYADSVKGRFTISRDNAKNTVYLQMNSLSPGDTAVYYCAAHSEQYTPFYYWGQGTQVTVSS | low polyreactivity
QVQLVESGGGLVQAGGSLRLSCAASYAMGWYRQAPGKERELVATITSGGVSTYYADSVKGRFTISRDNAKNTVYLQMNSLKPEDTAVYYCAATASHSTSADYDYWGQGTQVTVSS | low polyreactivity
QVQLVESGGGLVQAGGSLRLSCAASGFTFTSYVMGWSRQAPGKEREFVAAITRSAGGTYYADSVKGRFTISRDNAKNTVYLQMNSLKPEDTAVYYCAAVYRSGSRYYLGWYNYWGQGTQVTVSS | high polyreactivity
QVQLVESGGGLVQAGGSLGLSCAASGSTFRSYAMGWYRQAPGKERELVAAISSAGTTYYADSVKGRFTISRDNAKNTVYLQMNSLKPEDTAVYYCAAKYSYYTYAGDGGLFSWSYGYWGQGTQVTVSS | low polyreactivity

Sequence | polyreactivity (PSR sort gate)
QVQLQESGGGLLQAGGSLRLSCAASGTISTDSYMGWYRQAPGKERKFVATIGYGGITYYADSVKGRSTISRDSAKNTVYLQMNSLKPEDTEVYYCAVNSYYPDHYWYWGRGTQVTVSS | high polyreactivity
QVQLVESGGGLVQAGGSLRLSCAASGSIFGGYGMGWYRQAPGKERELVAAITSGSSTYYADSVTGRFTISRDNAKNTVYLQMNSLKPEDTAVYYCAARPYPHSAYEGDYWGRGTQVTVSS | low polyreactivity
QVQLVESGGGLVQGGSLRLSCAASGFTFPIYVMGWSRHAPGKEMELVASISSVGSTNYADSVKGRFTISRDNSKNTVYLQMNSLKPEDTAVYYCNADDPNSYGGFDYWGQGTQVTVSS | low polyreactivity
QVQLVESGGGLVQAGGSLRLSCAASGIIFVKNAMGWYRQAPGKERELVASISGSGGRTYYADSEKGRFTISRDNAKNTVYLQMNILKPEDTAVYYCNTLLAPHARKARRHDYWGQGTQVTVSS | low polyreactivity
QVQLVESGGGLVQAGGSLRLSSAASGRIFTVYAMGWYRQAPGKERELVAAITRGGGGTYYADSVKGRFTITRDYAKNTDYLQMNRLKPEDTAVYYCAATHNQVVARYSFNYWGQGTQVTVSS | high polyreactivity
QVQLVESGGGLVQAGGSLRLSCAASGSIFGSNAMGWYRQSPGKERELVAAISRSGGSTYYADSVKGRFTISRDNAKNTVYLQMNSLKPEDTAVYYCAVVASRSHTETPEYDFWGQVTQVTVSS | low polyreactivity
QVQLVESGGGLVQAGGSLRLSCAASGSIFSSNAMGWYRQAPGKERELVAAITSGGSTTYADSVKGRFTISRDNAKNTVYLQMNSLKPEDTAVYYCAADPVYRYYHGWTYLDYDYWGQGTQVTVSS | low polyreactivity
QVQLVESGGGLVQAGGSLRLSCAASGNIFRIYAMGWYRQAPGKERALVAAITSRGAITNYADSVKGRFTISRDYAKNTVYLQMISLKPEDTAVYYCAASYRRLTGVGADEYWGQGTQVTVSS | high polyreactivity
QVQLVESGGGLVQAGGSLRLSCAASGSIFVIYSMGWYRQAPGKERELVARITKSGGSTYYADSVKGRFTISRDNAKITVYLQMNSLKPEDTAVYYCNVGYGGSSDGGYDYWGQGTQVTVSS | high polyreactivity
QVQLVESGGGLVQAGGSLRLSCAGSGSTFRYNAMGWYRQAPGKERELVAAISQRGGSTYYADSVKGRFTISRDNANNTVYLQMNSLKPEDTAVYYCPGDYWGQGTQVTVSS | high polyreactivity
QVQLVESGGGLVQARGSLRLSSAASRSTFNVYAMGWYRQAPGKERELVAGIRDSDGSTNYADSVKGRFTISRDNAKNTVYLQMNSLKPEDTAVYYCAADLYDINWSVWLDYWGQGTQVTVSS | low polyreactivity
QVQLVESGGGLVQAGGSLRLSCAASGRIFDYAMGWYRQAPGKERELVAAINSAGSTNYADSVKGRFTISRDNAKNTVYLQMNSLKPEDTAVYYCNTDYGSSYNYWGQGTQVTVSS | high polyreactivity
QDQLVESGGGLVQAGGSLLLSCAASGIIITGNAMVWYRQAPGKERELVAGITGSGGNTYYADCVKGRYTISRDNAKNTFYLQMNSLKPEDTGVYYCAARRHIFLLIIWSGRVDYWGQGTQVTVSS | low polyreactivity
QFQLVESGGGLVQAGGSLRLSCAASGRIFRYYDMGWYRQAPGKERELVAAISFSGGSTYYADSVKGRFTISRDNAKNTVYLQMNSLKQEDTAVYYCAAGWRALYLSTYDYWGQGTQVTVSS | high polyreactivity
QVQLVESGGGLFQAGGILRLSCAASGFIFSSYAMGLYRLAPGKERELVAAISRSGGRTYYADSVKGRFTISRDYAKNTVYLQMNSLKPEDTAVYYCAARWYGLYLQRYDYWGQGTQVTVSS | high polyreactivity
QVQLVESGGGLVQAGGRLRLSCAASGSTIGYYTMGWYRQAPGKERELVAAISWSGDSTYYADSVKGRFTISRDNAKNTVYLQMNSLKPEDTAVYYCAKVHYVRRGDSRYDYWGQGTQVTVSS | high polyreactivity
QVQLVESGGGLVQAGGSLRLSCAASGIIFRGYVMGWYRQAPGKERELVAAISTSGGRTSYADSVKGRFTISRDYAKNTVYLQMNSLKPEDTAVYYCAARPLYSYSQWGYGYWGQVTQVTVSS | high polyreactivity
QVQLVESGGGLVQAGGSLRLSCAASGSTFPFYAMGWYRQAPGKERELVAAITSGGSTYADSVKGRFTITRDNAKNTVYLQMNSLKPEDTSVYYCAASWPRWWRFGYWGQGTQVNVSS | low polyreactivity
QVQLVESGGGLVQAGGSLRLSCAASGRIFPSYAMGWYRQAPGKERELVAAISSSSAGTYYADSVKGRFTISRDNAKNTVYLQMNSLKPEDTAVYYCAAASARYRQYKSYYYWGQGTQVTVSS | high polyreactivity
QVQLVESGRGLVQAGGSLRLSCAASGSIFEINAMGWYRQAPGIERELVAAITGSGGSTHYADSVKGRFTISRDNAKNTVSLQMNSLKPEDTAVYYCAAVPRYQYGYWGQGTQVTVSS | low polyreactivity
QVQLVESGGGLVQAGGSLRLSCAASGSIFPGYAMGWSRPAPGKERELVAAISRDGSTNYADSVKGRFTISRDNAKITVYLQMNSLKPEDTAVYYCARRNPLGGNEHDYWGQGTQVTVSS | low polyreactivity

From the nanobody polyreactivity screen of Harvey et al. (2022)
